Common to all, as to assay: MST
The target of assay [1] is T1, full-length ETR1, purified and fluorescently labelled (Arabidopsis, UniProt P49333 1-738, fluorescent label (dye and site not stated)).
T1 chain: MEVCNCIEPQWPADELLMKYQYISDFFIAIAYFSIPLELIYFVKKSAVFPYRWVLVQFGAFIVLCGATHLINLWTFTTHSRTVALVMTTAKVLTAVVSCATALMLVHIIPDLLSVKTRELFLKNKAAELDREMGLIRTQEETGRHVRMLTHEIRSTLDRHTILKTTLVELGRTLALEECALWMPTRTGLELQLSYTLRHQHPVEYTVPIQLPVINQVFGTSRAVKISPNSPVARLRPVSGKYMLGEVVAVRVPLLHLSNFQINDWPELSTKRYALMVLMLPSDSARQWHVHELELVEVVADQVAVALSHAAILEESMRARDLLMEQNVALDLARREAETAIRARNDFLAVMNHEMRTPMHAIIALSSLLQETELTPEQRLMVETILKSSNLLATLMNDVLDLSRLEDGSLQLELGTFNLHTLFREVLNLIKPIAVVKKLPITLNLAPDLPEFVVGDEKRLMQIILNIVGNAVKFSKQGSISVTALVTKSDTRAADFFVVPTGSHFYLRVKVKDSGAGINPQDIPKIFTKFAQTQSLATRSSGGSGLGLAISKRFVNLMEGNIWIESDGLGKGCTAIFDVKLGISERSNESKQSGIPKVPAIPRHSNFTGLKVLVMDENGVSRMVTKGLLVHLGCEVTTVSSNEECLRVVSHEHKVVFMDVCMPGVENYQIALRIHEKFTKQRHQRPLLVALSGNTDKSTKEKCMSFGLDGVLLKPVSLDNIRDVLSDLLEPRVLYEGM

Assay [2] deals with ETR1 1-307.
Assay [3] has as its target ETR1 1-598.
Assay [4] concerns the target ETR1 1-407.
The target of assay [5] is ETR1 1-157.

Turning to MKPRLCFNFRRRSISPCYISISYLLVAKLFKLFKIH [synthetic full length PLS peptide PLS(FL)], the Kd (commonly the concentration at which binding is half-saturated) worked out at 1900 nM in assay [1]; 1780 nM in assay [2]; 2920 nM in assay [3]; 1650 nM in assay [4]; 1520 nM in assay [5].

Source of the values: paper doi:10.1101/2023.06.15.545071 (2023).
